Results as given in US20240209112A1 (GENOME, published 2024).

T1: BCAM protein (antigenic protein coated in the ELISA) (UniProt P50895 32-547, limits assumed)
T1 construct: also called antigen protein; Lu
T1 sequence (looked up): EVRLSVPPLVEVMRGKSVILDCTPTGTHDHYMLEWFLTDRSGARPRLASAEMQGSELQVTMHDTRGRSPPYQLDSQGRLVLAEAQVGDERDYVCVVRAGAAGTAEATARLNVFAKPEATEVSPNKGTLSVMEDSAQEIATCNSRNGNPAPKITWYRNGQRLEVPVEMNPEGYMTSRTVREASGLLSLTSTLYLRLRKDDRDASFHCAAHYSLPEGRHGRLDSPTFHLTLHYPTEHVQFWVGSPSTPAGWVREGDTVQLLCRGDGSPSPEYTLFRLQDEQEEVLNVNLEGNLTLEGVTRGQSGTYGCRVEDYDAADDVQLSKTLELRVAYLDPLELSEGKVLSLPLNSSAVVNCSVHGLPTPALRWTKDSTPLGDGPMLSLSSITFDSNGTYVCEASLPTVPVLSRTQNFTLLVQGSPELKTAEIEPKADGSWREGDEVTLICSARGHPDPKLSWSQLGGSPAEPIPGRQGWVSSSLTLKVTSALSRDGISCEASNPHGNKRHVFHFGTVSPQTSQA

T2: Human BCAM expressed on transfected HEK293FT cells (human, UniProt P50895 32-628)
T2 construct: whole, on cells; also called Human BCAM antigens; 293FT/BCAM1
T2 sequence (looked up): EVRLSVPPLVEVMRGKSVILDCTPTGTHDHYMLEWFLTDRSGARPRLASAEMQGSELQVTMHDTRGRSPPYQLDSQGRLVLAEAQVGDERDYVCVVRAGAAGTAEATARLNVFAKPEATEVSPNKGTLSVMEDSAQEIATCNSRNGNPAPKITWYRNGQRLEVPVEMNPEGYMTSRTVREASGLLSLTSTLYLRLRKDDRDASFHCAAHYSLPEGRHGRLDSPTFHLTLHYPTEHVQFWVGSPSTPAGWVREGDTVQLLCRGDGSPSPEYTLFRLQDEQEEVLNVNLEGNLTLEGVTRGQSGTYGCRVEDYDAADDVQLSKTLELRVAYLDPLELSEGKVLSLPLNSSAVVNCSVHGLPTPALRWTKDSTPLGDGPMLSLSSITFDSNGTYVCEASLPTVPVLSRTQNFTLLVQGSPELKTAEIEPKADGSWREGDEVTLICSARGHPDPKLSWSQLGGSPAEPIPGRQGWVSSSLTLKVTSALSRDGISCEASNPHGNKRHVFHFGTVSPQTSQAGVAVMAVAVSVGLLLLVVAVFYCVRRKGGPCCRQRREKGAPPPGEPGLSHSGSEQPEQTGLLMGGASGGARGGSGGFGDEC

T3: Human BCAM (amine-coupled to AR2G biosensors) (human, UniProt P50895 32-547, limits assumed)
T3 construct: also called human BCAM protein
T3 sequence (looked up): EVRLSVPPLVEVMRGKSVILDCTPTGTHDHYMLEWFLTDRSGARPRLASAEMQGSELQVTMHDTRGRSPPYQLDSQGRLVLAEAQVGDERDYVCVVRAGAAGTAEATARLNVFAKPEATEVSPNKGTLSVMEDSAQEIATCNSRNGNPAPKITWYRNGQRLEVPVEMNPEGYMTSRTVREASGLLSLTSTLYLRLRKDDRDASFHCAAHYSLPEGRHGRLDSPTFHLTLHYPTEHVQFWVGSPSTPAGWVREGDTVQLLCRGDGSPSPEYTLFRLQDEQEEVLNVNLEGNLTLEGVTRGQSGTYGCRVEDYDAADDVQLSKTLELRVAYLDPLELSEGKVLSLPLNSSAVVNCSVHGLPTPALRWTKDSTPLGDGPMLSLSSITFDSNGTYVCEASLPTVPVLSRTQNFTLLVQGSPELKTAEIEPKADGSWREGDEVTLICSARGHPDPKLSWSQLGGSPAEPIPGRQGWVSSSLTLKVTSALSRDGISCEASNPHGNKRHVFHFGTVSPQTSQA


Experiments:
[1] = target: T1, BCAM protein (antigenic protein coated …); assay: ELISA on coated BCAM protein
Experimental: (§1) In order to confirm the binding ability of each antibody prepared in Example 1 to an antigen protein (BCAM protein), an ELISA (Enzyme-Linked Immunosorbent Assay) test was performed. The antigenic protein was diluted in PBS buffer and prepared to a concentration of 15 nM. Each well of a 96-well half plate (Costar, Cat. No. 3690) was coated with 50 μL of the antigenic protein, followed by overnight incubation at 4° C. Next day, after all the solutions in the plate were removed, a blocking buffer (3% BSA in PBS) was added to each well, followed by incubation at 37° C. for 1 hour. Three antibody samples (111a, 111b, and 111c) were sequentially diluted in the blocking buffer from 1 μM to 7 points (1 pM) at a dilution ratio of 10-fold. After the blocking process was completed, the buffer was removed from the well, and the antibodies prepared by the dilution was added to each well by 50 μL, followed by incubation at 37° C. for 2 hours. The incubated well was washed with 0.1% PBST (0.1% Tween 20 in PBS) and were treated with HRP-conjugated anti-human IgG Fc antibodies (ThermoFisher Scientific, Cat. No.: 31423) which were secondary antibodies for antibody detection at 37° C. for 1 hour, and then washed again with 0.1% PBST. ABTS solution (ThermoFisher Scientific, Cat. No.: 00-2024) was added to each well by 50 μL for coloring, and reacted at room temperature for 10 minutes, and an optical density at 405 nm (OD₄₀₅) was measured. In order to compare the degree of avidity of each antibody to antigens, the EC50 concentration of each antibody was calculated, and the results are shown in Table 4.

[2] = target: T1, BCAM protein (antigenic protein coated …); assay: ELISA, BCAM coated at 15 nM, antibody at 1 nM
Experimental: as §1

[3] = target: T1, BCAM protein (antigenic protein coated …); assay: ELISA, BCAM coated at 15 nM, antibody at 10 nM
Experimental: as §1

[4] = target: T1, BCAM protein (antigenic protein coated …); assay: ELISA, BCAM coated at 15 nM, antibody at 0.1 nM
Experimental: as §1

[5] = target: T1, BCAM protein (antigenic protein coated …); assay: ELISA, BCAM coated at 15 nM, antibody at 100 nM
Experimental: as §1

[6] = target: T1, BCAM protein (antigenic protein coated …); assay: ELISA, BCAM coated at 15 nM, antibody at 0.01 nM
Experimental: as §1

[7] = target: T1, BCAM protein (antigenic protein coated …); assay: ELISA, BCAM coated at 15 nM, antibody at 1000 nM
Experimental: as §1

[8] = target: T1, BCAM protein (antigenic protein coated …); assay: ELISA, BCAM coated at 15 nM, antibody at 0.001 nM
Experimental: as §1

[9] = target: T2, Human BCAM expressed on transfected …; assay: flow cytometry on HEK293FT cells transfected with human BCAM
Experimental: Human BCAM antigens were expressed in HEK293FT cells via transfection (using 293FT/BCAM1 plasmid). The transfected HEK293FT cells (1×10⁵ cells) were suspended in PBS and 50 μL thereof was seeded on a plate.
Separately, each of the anti-BCAM antibodies of Example 1 and isotype control (human IgG) antibodies was initially diluted at a concentration of 45 μg/mL using PBS and diluted 12 times through 3-fold dilution, and the plate was incubated at an appropriate time and at an appropriate temperature. As a negative control, PBS buffer was used.
Then, after washing, AlexaFluor® 647 AffiniPure Goat Anti-Human IgG (H+L) (min X Bov, Hrs, Ms Sr Prot) (Jackson) (1 μg/mL) was added thereto and the plate was incubated again, washed again with PBS, and the binding degree of antigen-antibody was analyzed with a flow cytometer.

[10] = target: T3, Human BCAM (amine-coupled to AR2G …); assay: BLI (Octet QK), human BCAM amine-coupled to AR2G sensor, antibody in solution, 1:1 fit
Experimental: The binding ability confirmation test according to BLI for the three antibodies prepared in Example 1 was performed using Octet (Octet QK, ForteBio).
Specifically, in order to bind human BCAM (antigen) using amine coupling, Reactive 2nd Generation (AR2G) biosensors (Cat. No. 18-5094, Sartorius) were mounted and activated using the AE2G reagent kit (Cat. No. 18-5095). Thereafter, the biosensors were put in an antigen solution for 10 minutes to bind the human BCAM, and put in an ethanolamine solution for 5 minutes to terminate the reaction. The biosensors to which the human BCAM was bound was put into a buffer containing the prepared three different antibodies 111a, 111b, and 111c, and the binding reaction was monitored for 5 minutes, followed by a dissociation reaction for 15 minutes. At this time, antibody solutions were sequentially diluted, and association and dissociation rates depending on different concentrations were verified. The association (Ka) and dissociation (Kd) rate constants were determined by fitting them to a 1:1 binding model using a curve-fitting software. The binding dissociation equilibrium constant (KD) was calculated with KD=Kd/Ka.

| Binder | EC50 [1] | OD405 [2] | OD405 [3] | OD405 [4] | OD405 [5] | OD405 [6] | OD405 [7] | OD405 [8] | EC50 [9] | Kd [10] | koff [10] | kon [10] |
| --- | --- | --- | --- | --- | --- | --- | --- | --- | --- | --- | --- | --- |
| anti-BCAM human IgG4 antibody 111b (antibody, V domains shown) VH: EVQLVQSGAEVKKPGASVKVSCKASGYTFTSYYMHWVRQAPGQGLEWMGIINPSGGSTSYAQKFQGRVTMTRDTSTSTVYMELSSLRSEDTAVYYCARDGKGWDYYGSGSPLQYWGQGTLVTVSS VL: LPVLTQPPSVSKGLRQTATLTCTGNSNNVGNQGAAWLQQHQGHPPKLLSYRNNDRPSGISERLSASRSGNTASLTITGLQPEDEADYYCSAWDSSLSAWVFGGGTKLTVL | 127 nM | 0.33 OD405 | 0.43 OD405 | 0.35 OD405 | 0.46 OD405 | 0.15 OD405 | 0.76 OD405 | 0.1 OD405 | 0.171 mg/L | 13.1 nM | 0.000306 s⁻¹ | 23400 M⁻¹ s⁻¹ |
| anti-BCAM human IgG4 antibody 111a (antibody, V domains shown, Derived from a human scFv phage library; also called 11la) VH: QVTLKESGPGLVKPSGTLSLTCAVSGGSISSSNWWSWVRQPPGKGLEWIGEIYHSGSTNYNPSLKSRVTISVDKSKNQFSLKLSSVTAADTAVYYCARAYTVTTTYFDYWGQGTLVTVSS VL: NIQMTQSPSTLSASVGDRVTITCRASQSMSTWLAWYQQKPGRAPKLLIYKASALETGVPSRFSGSGSGTQFTLTISSLQPDDFATYYCQQYDEFASFGQGTKVEIK | 12.5 nM | 0.46 OD405 | 1.09 OD405 | 0.18 OD405 | 2.14 OD405 | 0.11 OD405 | 2.32 OD405 | 0.1 OD405 | 0.189 mg/L | 2.47 nM | 0.000397 s⁻¹ | 161000 M⁻¹ s⁻¹ |
| anti-BCAM human IgG4 antibody 111c (antibody, V domains shown) VH: EVQLVQSGGGLVKPGGSLRLSCAASGFTFSDYYMSWIRQAPGKGLEWVSYTSSSGSTIYYADSVKGRFTISRDNAKNSLYLQMNSLRAEDTAVYYCARDITAFDIWGQGTMVTVSS VL: LPVLTQPPSASGSPGQSVTISCTGTSSDVGGYNYVSWYQQHPGKAPKLMIYEVNKRPSGVPDRFSGSKSGNTASLTVSGLQAEDEADYYCCSYAGSNNYVFGTGTKVTVL | 7.7 nM | 0.5 OD405 | 1.41 OD405 | 0.31 OD405 | 2.26 OD405 | 0.25 OD405 | 2.34 OD405 | 0.11 OD405 | 0.0427 mg/L | 0.084 nM | 0.000255 s⁻¹ | 3.04e+06 M⁻¹ s⁻¹ |
